Drawing on patent US20170101466A1, this text covers IC50 for two substances.

pIC50: −log10 of the molar value.

Assay [1] concerns the target soluble human BLyS (human) (UniProt Q9Y275). As to the kind of experiment: DELFIA competition, Eu-hBLyS binding to coated BR3.
For assay [2], the target named is soluble mouse BLyS (mouse) (UniProt Q9WU72). As to the kind of experiment: DELFIA competition, Eu-mBLyS binding to coated BR3.
Assay [3] deals with soluble human BLyS (human) (UniProt Q9Y275). As to the kind of experiment: DELFIA competition, Eu-hBLyS binding to coated BCMA.
Assay [4] has the same target. Nature of the assay: DELFIA competition, Eu-hBLyS binding to coated TACI.
The target of assay [5] is soluble mouse BLyS (mouse) (UniProt Q9WU72). As to the kind of experiment: DELFIA competition, Eu-mBLyS binding to coated BCMA.
The target is the same in assay [6]. Nature of the assay: DELFIA competition, Eu-mBLyS binding to coated TACI.

Consider AMG623, for which the pIC50 in assay [1] is 11.03; in assay [2], 9.83; in assay [3], more than 12.52; in assay [4], more than 12.52; in assay [5], 10.94; in assay [6] it was more than 12.52.
For the substance TACI-Ig (Fc fusion), the negative logarithm of the IC50 (pIC50) in assay [1] was 9.80; in assay [2], 9.29; in assay [3], 9.95; in assay [4], 10.89; in assay [5], 9.11; in assay [6] it was 10.80.
